This passage reports EC50 and IC50 results from patent US20240343803A1.

One may read the EC50 as the concentration needed to bring the measured effect to its halfway point. Usually IC50 stands for the concentration needed to halve the response being measured.

Experiment [1] addresses human PVRIG (AcroBiosystems, Cat NO. PVG-H52H4) (human) (UniProt Q6DKI7). Nature of the experiment: ELISA, coated human PVRIG; negative control.
The target in experiment [2] is cynomolgus monkey PVRIG (Novoprotein, Cat NO. C09B) (cynomolgus monkey). As to the kind of experiment: ELISA, coated cynomolgus PVRIG; negative control. (In general: In an ELISA, binding on a coated surface is turned into a signal by an enzyme label.)
The target of experiment [3] is cynomolgus monkey TIGIT ECD-mFc (cynomolgus monkey). As to the kind of experiment: ELISA, cynomolgus TIGIT ECD-mFc captured by anti-mouse IgG; negative control.
Experiment [4] addresses human PVRIG-mFc protein (Acro, PVG-H5253) (human) (UniProt Q6DKI7). As to the kind of experiment: HTRF competition, PVRIG-mFc with Bio-CD112-His as competitor; negative control. A general note: Time-resolved FRET reads energy transfer from a long-lived donor to a nearby acceptor.

Chain of cynomolgus monkey PVRIG (Novoprotein, Cat NO. C09B) (cynomolgus monkey) (chain, as listed by the source): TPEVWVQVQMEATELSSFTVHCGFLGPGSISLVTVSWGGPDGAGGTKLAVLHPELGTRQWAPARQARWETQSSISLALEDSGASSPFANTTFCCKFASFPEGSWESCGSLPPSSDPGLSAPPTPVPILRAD
Chain of human PVRIG (AcroBiosystems, Cat NO. PVG-H52H4) (human) (Q6DKI7 41-171 limits assumed, form in doubt): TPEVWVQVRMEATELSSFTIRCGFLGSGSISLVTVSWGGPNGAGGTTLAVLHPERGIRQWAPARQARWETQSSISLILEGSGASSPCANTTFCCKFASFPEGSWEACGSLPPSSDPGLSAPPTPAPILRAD
Chain of human PVRIG-mFc protein (Acro, PVG-H5253) (human) (Q6DKI7 41-171 limits assumed, form in doubt): as above
Chain of cynomolgus monkey TIGIT ECD-mFc (cynomolgus monkey) (chain, as listed by the source limits assumed): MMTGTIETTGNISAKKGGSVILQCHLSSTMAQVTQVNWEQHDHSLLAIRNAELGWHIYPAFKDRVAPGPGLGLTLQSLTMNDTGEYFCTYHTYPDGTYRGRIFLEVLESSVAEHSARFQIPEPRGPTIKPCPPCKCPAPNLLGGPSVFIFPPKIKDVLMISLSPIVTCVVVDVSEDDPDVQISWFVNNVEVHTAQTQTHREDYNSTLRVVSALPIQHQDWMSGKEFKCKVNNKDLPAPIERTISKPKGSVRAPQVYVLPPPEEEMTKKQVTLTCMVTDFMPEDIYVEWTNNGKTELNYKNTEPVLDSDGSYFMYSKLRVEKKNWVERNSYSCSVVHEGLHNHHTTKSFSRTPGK

Turning to anti-Fluorescein-hIgG1 (antibody), the EC50 in experiment [1] was determined as 40.3 µM; in experiment [2], 4 nM; in experiment [3], 0.687 nM. The substance also returned an IC50 in experiment [4] of 0.0302 nM.
